Target: T1, RecA (Escherichia coli, UniProt P0A7G6 P0A7G6:2-353)
Experiment: competition; 80 uM oligo competes against 8 uM ds-PhiX174 in EMSA
Details: tags: none (released from His6-Smt3-RecA by Ulp1 403-621 cleavage)
Method: (§1) The biological activities of the purified RecA protein was tested as follows. First, an electrophoretic mobility shift assay was performed to examine whether the RecA protein was capable of binding to DNA, following the method described in Chen et al., Proc. Natl. Acad Sci USA 101: 10572-10577 (2004). […] Six oligonucleotides, i.e., (CT)₂₀, (CA)₂₀, (GT)₂₀, (GA)₂₀, (AT)₂₀, and (CG)₂₀ described in Biet et al., Nucleic Acids Res 27:596-600 (1999), were used to determine the preference of the RecA protein for binding to double-strand (ds) or single-strand (ss) DNAs. 80 μM of each of the oligonucleotides was incubated with the RecA protein in the presence of circular ds-ΦX174 (8 μM) DNA and then a mobility shift assay was performed to examine the binding between the RecA protein and the ds- or ss-DNAs.

T1 sequence (P0A7G6 2-353, one chain of several): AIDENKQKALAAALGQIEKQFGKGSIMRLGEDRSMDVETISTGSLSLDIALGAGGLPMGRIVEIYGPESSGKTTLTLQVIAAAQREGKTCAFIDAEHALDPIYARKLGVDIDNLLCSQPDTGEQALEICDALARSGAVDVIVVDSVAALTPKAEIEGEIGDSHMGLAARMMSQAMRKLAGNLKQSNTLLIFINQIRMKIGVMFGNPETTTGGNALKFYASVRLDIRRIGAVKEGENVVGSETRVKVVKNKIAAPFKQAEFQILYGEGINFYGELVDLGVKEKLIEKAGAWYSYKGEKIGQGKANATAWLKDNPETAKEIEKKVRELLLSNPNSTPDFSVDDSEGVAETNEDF

Binding result, binds:
GTGTGTGTGTGTGTGTGTGTGTGTGTGTGTGTGTGTGTGT (ssDNA) [(GT)20]
GAGAGAGAGAGAGAGAGAGAGAGAGAGAGAGAGAGAGAGA (ssDNA) [(GA)20]
ATATATATATATATATATATATATATATATATATATATAT (ssDNA) [(AT)20]
CACACACACACACACACACACACACACACACACACACACA (ssDNA) [(CA)20]
CGCGCGCGCGCGCGCGCGCGCGCGCGCGCGCGCGCGCGCG (ssDNA) [(CG)20]

Target: T1, RecA
Experiment: competition; 80 uM oligo competes against 8 uM ds-PhiX174 in EMSA; no significant effect at 2, 4 or 8 uM
Details: tags: none (released from His6-Smt3-RecA by Ulp1 403-621 cleavage)
Method: as §1

Binding result, binds:
CTCTCTCTCTCTCTCTCTCTCTCTCTCTCTCTCTCTCTCT (ssDNA) [(CT)20]

From patent US20090280535, “SUMO Fusion Protein Expression System for Producing Native Proteins” (Academia Sinica, published 2009)
